Reference: paper PMC4605270

Target: Borrelia burgdorferi hybrid histidine kinase Hk1 periplasmic sensor domain D1 (Borrelia burgdorferi strain 5A4 NP1)
Assay: SEC

Borrelia burgdorferi hybrid histidine kinase Hk1 periplasmic sensor domain D1 (domain or fragment)
stoichiometry N: 2
